{"source": "paper PMC4644223", "binders": {"B1": {"name": "Snf7 labeled with Alexa488, P39929 1-240 (natural protein)", "chain": "MWSSLFGWTSSNAKNKESPTKAIVRLREHINLLSKKQSHLRTQITNQENEARIFLTKGNKVMAKNALKKKKTIEQLLSKVEGTMESMEQQLFSIESANLNLETMRAMQEGAKAMKTIHSGLDIDKVDETMDEIREQVELGDEISDAISRPLITGANEVDEDELDEELDMLAQENANQETSKIVNNNVNAAPISENKVSLPSVPSNKIKQSENSVKDGEEEEDEEDEDEKALRELQAEMGL", "modifications": "here or on the partner: Alexa488 label (TFP-Alexa-488), site not stated; Alexa488 label (TFP-Alexa-488), site not stated"}, "B2": {"name": "Snf7, P39929 1-240 (natural protein)", "chain": "B1 chain"}}, "key": {"[1]": {"target": "T1, Snf7 labeled with Alexa488 (yeast), P39929", "T1 chain": "B1 chain", "experiment": "TIRF microscopy with counting of molecules by fluorescence intensity", "conditions": "remark: other sources report otherwise"}, "Snf7 (yeast), P39929": {"target": "T2, Snf7 (yeast), P39929", "T2 chain": "B1 chain", "experiment": "high-speed atomic force microscopy", "conditions": "remark: other sources report otherwise"}}}
{"binder": "B1", "values": [{"measurement": "stoichiometry N", "setting": "[1]", "value": 50, "unit": "monomers"}]}
{"binder": "B2", "values": [{"measurement": "filament growth rate (subunits.s^−1.μM^−1)", "setting": "Snf7 (yeast), P39929", "value": 3}]}
